Data from patent US20250340667A1, “Cancer Treatment comprising an anti-MSLN/CD137 antibody and a chemotherapeutic” (Merck Patent GmbH, priority 2022, published 2025).
Numbering of substitutions follows the chain as printed. Where “and” joins values, the source holds several entries; their conditions need not be identical. Equal entries are not always repeated. Where two headings read alike, the source gives them in different places.

Assays:
CT26 colon cancer cells = assay type: in vivo; details: for tumor growth inhibition (TGI): relative to the isotype control; for median survival: isotype control 17 days; for complete tumor regression: number of mice with complete regression per group
Description: (§1) The efficacy of the combination of an antibody molecule that binds MSLN and CD137 and a chemotherapeutic in enhancing an anti-cancer immune response compared to monotherapy with either the antibody molecule that binds MSLN and CD137 or the chemotherapeutic was assessed by studying the average tumour volume over time and prolonged survival in mouse tumour models. These mouse tumor models are described in more detail below.
(§2) CT26 cells were obtained from ATCC and cultured in RPMI media containing 2 mM L-glutamine, 10 mM HEPES, 1 mM sodium pyruvate, 4500 mg/L glucose, 1500 mg/L sodium bicarbonate, and 10% fetal bovine serum (FBS). JC cells were obtained from ATCC and were maintained in vitro as a monolayer culture at WuXi in RPMI-1640 supplemented with 10% heat-inactivated FBS. These tumor cell lines were individually maintained in vitro as monolayer cultures and grown at 37° C. in an atmosphere of 5% CO2. The cells were routinely sub-cultured twice weekly by TrypLE treatment. The cells growing in an exponential growth phase were harvested and counted for tumor inoculation. Wild-type BALB/c female mice were purchased from Charles River Laboratories, or from Lingchang Biological Technology Co. LTD. All mice were 8-12 weeks old at the start of studies and were housed and maintained as described below, under conditions that conform to The Guide for the Care and Use of Laboratory Animals, 8th Edition. All animal experiments were performed in accordance with EMD Serono Research Institutional (protocol 17-008, 20-005) and Wuxi AppTec Animal Care and Use Committee (IACUC) guidelines.
(§3) CT26 and JC tumor models were used to investigate the antitumor effect of a combination of an antibody molecule that binds MSLN and CD137 and a chemotherapeutic compared to monotherapy with the antibody molecule that binds MSLN and CD137 or the chemotherapeutic. Mice were treated with the anti-mMSLN-mCD137-huIgG1-LALA antibody molecule FS122m in combination with either of the two chemotherapeutics cisplatin or gemcitabine. For the CT26 model, female BALB/c mice were inoculated via subcutaneous (sc) injection in the right flank with 0.3×10^6 CT26 cells in 0.1 mL of PBS. Mice were randomized to treatment groups (n=10 mice/group) when the average tumor volume reached approximately 50-100 mm^3. For the JC model, female BALB/c mice were inoculated via sc injection at the right upper flank with JC tumor cells (5×10^6) in 0.1 mL of PBS. Treatments were started on day 14 after tumor inoculation when the average tumor size reached approximately 80 mm^3. FS122m and anti-HEL hIgG1 LALA isotype control were given as 5 mg/kg on the first, third and fifth day of treatment (Days 0, 2, and 4) via intraperitoneal (ip) injection. Cisplatin was given on Day 0 at 10 mg/kg via ip injection, and gemcitabine was given on Day 0 at 120 mg/kg via ip injection.
(§4) Mortality checks were performed once daily. Animals were checked daily for any effects of tumor growth and treatments on normal behavior such as mobility, food and water consumption (by looking only), eye/hair matting and any other abnormal effect as stated in the protocol. Body weights were recorded twice weekly and any mouse with a 20% loss of initial body weight loss was humanely sacrificed. Mice were humanely euthanized if their subcutaneous tumors reached a volume of 2500 mm^3.
(§5) Body weight was measured and recorded twice weekly until an endpoint was reached. Tumor sizes were measured twice per week in three dimensions using a caliper, and the volume was expressed in mm^3 using the formula: width×length×height×0.5236.
(§6) Differences in tumor growth between treatment groups were determined using two-way analysis of variance (ANOVA) and Tukey's Multiple Comparisons Test. The significance of survival was determined using Log-rank (Mantel-Cox) test. […]

JC breast cancer cells = assay type: in vivo; details: for tumor growth inhibition (TGI): FS122m 5 mg/kg ip Days 0, 2, 4; for complete tumor regression: number of mice with complete regression per group
Description: as §1, §2, §3, §4, §5, §6

CD137 = target: T1, CD137 (Homo sapiens, UniProt Q07011); details: monotherapy clinical studies, suspended; cited from earlier work
T1 construct: Clinical studies of both utomilumab and urelumab monotherapy were however suspended; host or cells: patients (endogenous CD137)

mouse MSLN = target: T2, mouse MSLN (Mus musculus, UniProt Q61468); experiment: Binding / cross-reactivity to mouse MSLN
T2 sequence (Q61468 36-600): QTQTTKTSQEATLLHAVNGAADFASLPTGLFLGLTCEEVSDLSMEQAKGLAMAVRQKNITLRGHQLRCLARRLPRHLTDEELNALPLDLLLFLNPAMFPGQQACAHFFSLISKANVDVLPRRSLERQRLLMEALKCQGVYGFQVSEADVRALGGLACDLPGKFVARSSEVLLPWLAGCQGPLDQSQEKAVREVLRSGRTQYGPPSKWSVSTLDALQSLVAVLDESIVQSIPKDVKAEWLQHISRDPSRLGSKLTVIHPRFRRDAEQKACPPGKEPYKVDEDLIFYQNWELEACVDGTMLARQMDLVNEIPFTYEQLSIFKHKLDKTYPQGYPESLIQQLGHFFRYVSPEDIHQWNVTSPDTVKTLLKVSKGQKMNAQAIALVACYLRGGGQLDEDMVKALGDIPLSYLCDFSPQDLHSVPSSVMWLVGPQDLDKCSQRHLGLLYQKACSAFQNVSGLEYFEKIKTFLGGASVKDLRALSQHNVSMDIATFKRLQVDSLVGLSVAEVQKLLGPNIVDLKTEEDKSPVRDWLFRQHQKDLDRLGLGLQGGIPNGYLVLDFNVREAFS

mouse CD137 = mouse CD137 (Mus musculus, UniProt P20334); experiment: Binding / cross-reactivity to mouse CD137
[1] = cisplatin combination study, Day 17, FS122m 5 mg/kg ip Days 0, 2, 4, cisplatin 10 mg/kg ip Day 0
[2] = cisplatin combination study, FS122m 5 mg/kg ip Days 0, 2, 4, cisplatin 10 mg/kg ip Day 0
[3] = cisplatin combination study, Day 22 post treatment initiation, compared with the isotype control, cisplatin 10 mg/kg ip Day 0
[4] = cisplatin combination study, isotype control 22 days
[5] = gemcitabine combination study, monotherapies Day 14, combination compared on Day 18, FS122m 5 mg/kg ip Days 0, 2, 4, gemcitabine 120 mg/kg ip Day 0
[6] = gemcitabine combination study, Day 25, relative to the isotype control, gemcitabine 120 mg/kg ip Day 0
[7] = gemcitabine combination study, isotype control 27 days

mouse CD137, sequence (P20334 24-256): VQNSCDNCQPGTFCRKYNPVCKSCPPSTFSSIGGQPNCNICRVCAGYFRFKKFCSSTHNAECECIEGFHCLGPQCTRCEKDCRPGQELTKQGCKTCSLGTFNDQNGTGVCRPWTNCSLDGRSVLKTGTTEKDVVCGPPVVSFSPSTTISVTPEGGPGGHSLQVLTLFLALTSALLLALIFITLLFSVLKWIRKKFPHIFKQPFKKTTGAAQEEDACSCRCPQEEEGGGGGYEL
T1 sequence (Q07011 24-255): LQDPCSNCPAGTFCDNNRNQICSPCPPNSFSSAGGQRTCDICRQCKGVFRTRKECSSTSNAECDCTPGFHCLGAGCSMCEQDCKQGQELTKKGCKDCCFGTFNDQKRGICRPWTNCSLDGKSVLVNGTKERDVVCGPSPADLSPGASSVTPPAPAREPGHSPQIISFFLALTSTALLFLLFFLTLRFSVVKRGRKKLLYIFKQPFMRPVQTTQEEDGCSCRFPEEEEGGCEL

N.N.[Cl][Pt][Cl] [cisplatin]
tumor growth inhibition (TGI) (CT26 colon cancer cells; [1]): 77.8%
median survival (CT26 colon cancer cells; [2]): 36.5 days
complete tumor regression (CT26 colon cancer cells; cisplatin combination study): no complete tumor regression in 10 mice
complete tumor regression (CT26 colon cancer cells; gemcitabine combination study): no complete tumor regression in 9 mice
tumor growth inhibition (TGI) (JC breast cancer cells; [3]): 44.9%
median survival (JC breast cancer cells; [4]): 29 days
complete tumor regression (JC breast cancer cells; cisplatin combination study): no complete tumor regression in 10 mice
complete tumor regression (JC breast cancer cells; gemcitabine combination study): no complete tumor regression in 10 mice

Nc1ccn([C@@H]2O[C@H](CO)[C@@H](O)C2(F)F)c(=O)n1 [gemcitabine]
median survival (CT26 colon cancer cells; gemcitabine combination study): 22 days
complete tumor regression (CT26 colon cancer cells; gemcitabine combination study): no complete tumor regression in any of 9 mice
tumor growth inhibition (TGI) (CT26 colon cancer cells; [5]): 58.2%
tumor growth inhibition (TGI) (JC breast cancer cells; [6]): 47.8%
median survival (JC breast cancer cells; [7]): 36 days
complete tumor regression (JC breast cancer cells; gemcitabine combination study): no complete tumor regression in 10 mice

urelumab: 1st generation CD137 agonist antibody
clinical toxicity (CD137): hepatotoxicity

B1: FS122m: mouse surrogate mAb2 of M9657 binding mouse MSLN and murine CD137, human IgG1 LALA; SEQ ID NOs 84 and 85 (antibody)
heavy: EVQLLESGGGLVQPGGSLRLSCAASGFTFSTYFMVWVRQAPGKGLEWVSMISPKSSNTYYADSVKGRFTISRDNSKNTLYLQMNSLRAEDTAVYYCARYHISPRFDYWGQGTLVTVSSASTKGPSVFPLAPSSKSTSGGTAALGCLVKDYFPEPVTVSWNSGALTSGVHTFPAVLQSSGLYSLSSVVTVPSSSLGTQTYICNVNHKPSNTKVDKKVEPKSCDKTHTCPPCPAPEAAGGPSVFLFPPKPKDTLMISRTPEVTCVVVDVSHEDPEVKFNWYVDGVEVHNAKTKPREEQYNSTYRVVSVLTVLHQDWLNGKEYKCKVSNKALPAPIEKTISKAKGQPREPQVYTLPPSRDEPYWSYVSLTCLVKGFYPSDIAVEWESNGQPENNYKTTPPVLDSDGSFFLYSKLTVMNYRWELGNVFSCSVMHEALHNHYTQKSLSLSPGK
light: EIVLTQSPGTLSLSPGERATLSCRASQSVSSSYLAWYQQKPGQAPRLLIYGASSRATGIPDRFSGSGSGTDFTLTISRLEPEDFAVYYCQQPFPFSFTFGQGTKVEIKRTVAAPSVFIFPPSDEQLKSGTASVVCLLNNFYPREAKVQWKVDNALQSGNSQESVTEQDSKDSTYSLSSTLTLSKADYEKHKVYACEVTHQGLSSPVTKSFNRGEC
modifications: FS122m (surrogate anti-mMSLN mCD137 Fcab G1-AA): Heavy chain AA (with LALA); Light chain AA
tumor growth inhibition (TGI) (CT26 colon cancer cells; [1]): 61.3%
median survival (CT26 colon cancer cells; [2]): 24 days
complete tumor regression (CT26 colon cancer cells; cisplatin combination study): 2 of 10 and 2 out of 10
median survival (CT26 colon cancer cells; gemcitabine combination study): 35 days
complete tumor regression (CT26 colon cancer cells; gemcitabine combination study): 3 of 9
tumor growth inhibition (TGI) (CT26 colon cancer cells; [5]): 61.4%
tumor growth inhibition (TGI) (JC breast cancer cells; [3]): 60.1%
median survival (JC breast cancer cells; [4]): 33 days
complete tumor regression (JC breast cancer cells; cisplatin combination study): 2 of 10
tumor growth inhibition (TGI) (JC breast cancer cells; [6]): 45.8%
median survival (JC breast cancer cells; [7]): 34 days
complete tumor regression (JC breast cancer cells; gemcitabine combination study): 1 of 10 and 1 out of 10
binding affinity for mouse MSLN (mouse MSLN; compared with binding affinity of M9657 for human MSLN): similar
binding affinity for mouse CD137 (mouse CD137; compared with binding affinity of M9657 for human CD137): similar

B2: M9657: tetravalent bispecific mAb2, Fab binds MSLN, CH3 Fcab binds CD137, human IgG1-LALA; heavy/light chain SEQ ID NOs 2 and 10 (antibody)
heavy: EVQLLESGGGLVQPGGSLRLSCAASGFTFTHTYMSWVRQAPGKGLEWVSAISPTYSTTNYADSVKGRFTISRDNNKNTLYLQMNSLRAEDTAVYYCARYNAYHAALDYWGQGTLVTVSSASTKGPSVFPLAPSSKSTSGGTAALGCLVKDYFPEPVTVSWNSGALTSGVHTFPAVLQSSGLYSLSSVVTVPSSSLGTQTYICNVNHKPSNTKVDKKVEPKSCDKTHTCPPCPAPEAAGGPSVFLFPPKPKDTLMISRTPEVTCVVVDVSHEDPEVKFNWYVDGVEVHNAKTKPREEQYNSTYRVVSVLTVLHQDWLNGKEYKCKVSNKALPAPIEKTISKAKGQPREPQVYTLPPSRDELPYIIPPYNQVSLTCLVKGFYPSDIAVEWESNGQPENNYKTTPPVLDSDGSFFLYSKLTVGADRWLEGNVFSCSVMHEALHNHYTQKSLSLSPG
light: B1 light with P92T, F93V, F95Y, S96P, F97Y
modifications: Heavy chain AA (with LALA); Light chain AA
cross-reactivity with mouse MSLN (mouse MSLN): lack of cross-reactivity
cross-reactivity with mouse CD137 (mouse CD137): lack of cross-reactivity
